According to PMC4043579 (Reproduction (Cambridge, England), 2014):

Biological target: T1, mouse gremlin-2 (GREM2; PRDC) (mouse, UniProt O88273 22-168)
T1 sequence (looked up): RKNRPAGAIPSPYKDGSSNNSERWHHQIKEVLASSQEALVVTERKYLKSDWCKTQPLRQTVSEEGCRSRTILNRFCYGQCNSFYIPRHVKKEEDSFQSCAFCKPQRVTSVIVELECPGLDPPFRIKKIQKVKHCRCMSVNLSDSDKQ
Assay: co-IP

B1: human anti-Müllerian hormone (AMH) (ligand, UniProt P03971 452-560, looked up)
chain: SAGATAADGPCALRELSVDLRAERSVLIPETYQANNCQGVCGWPQSDRNPRYGNHVVLLLKMQVRGAALARPPCCVPTAYAGKLLISLSEERISAHHVPNMVATECGCR
  binding result: binds
